{"source": "paper PMC7954794", "about": "“Protein context shapes the specificity of SH3 domain-mediated interactions in vivo” (Nature Communications, 2021)", "test_system": "PPIs identified as affected by the SH3 domain deletions", "experiment": "Liquid DHFR-PCA low-throughput validation of PPIs affected by SH3 deletion (Fig. S1D-E)", "format": "cell-based, Saccharomyces cerevisiae", "conditions": "label = prey, liquid DHFR-PCA, prey _1 = lost, _2 = gained in screen", "experimental": "Liquid DHFR-PCA low-throughput experiments were performed to validate the PPIs identified as affected by the SH3 domain deletions in the high-throughput solid DHFR-PCA screen (256 PPIs weaker or lost and 116 PPIs stronger or gained following domain deletions). Mating and the diploid selection were performed as described for the large-scale experiment, with the exception that the plates were in 384 formats. Following the second diploid selection, diploid cells were inoculated in a 96 v-shaped well plate using a robotically manipulated 96 pin tool in a synthetic complete medium with MSG at pH 6.0 with NAT and HPH. After 48 h of growth, optical density (OD) was read using a TECAN Infinite F200 Pro, and dilutions to 1 OD in sterile nanopure water were prepared. Cells were then diluted to 0.1 OD by combining 25 µl of cell suspension at OD = 1 and 225 µl of PCA selection media without agar in a 96-wells plate. Plates were incubated at 30 °C in a TECAN Infinite M Nano and OD was monitored each 15 min for 72 h.", "data": [{"molecule": "YGL099W_1 (protein, UniProt P53145 1-640, looked up) Large subunit GTPase 1: MPPKEAPKKWKAPKGPKPTHRKNKNKLELGRAIKYARQKENAIEYLPDGEMRFTTDKHEANWVKLRSVTQESALDEFLSTAALADKDFTADRHSNVKIIRMDSGNDSATSQGFSMTNEQRGNLNAKQRALAKDLIVPRRPEWNEGMSKFQLDRQEKEAFLEWRRKLAHLQESNEDLLLTPFERNIEVWKQLWRVVERSDLVVQIVDARNPLLFRSVDLERYVKESDDRKANLLLVNKADLLTKKQRIAWAKYFISKNISFTFYSALRANQLLEKQKEMGEDYREQDFEEADKEGFDADEKVMEKVKILSIDQLEELFLSKAPNEPLLPPLPGQPPLINIGLVGYPNVGKSSTINSLVGAKKVSVSSTPGKTKHFQTIKLSDSVMLCDCPGLVFPNFAYNKGELVCNGVLPIDQLRDYIGPAGLVAERIPKYYIEAIYGIHIQTKSRDEGGNGDIPTAQELLVAYARARGYMTQGYGSADEPRASRYILKDYVNGKLLYVNPPPHLEDDTPYTREECEEFNKDLYVFDRLPDTRKEQVQNAAKAKGIDIVDLARDLNQLTFSAHTGGDTQKEAKSVTHGGKQAALYNAAEDLDRDFFKMNNVEGRLSTPFHKVQNSSAGKRHNKKNKSKNAKSKVFSIENN", "values": [{"measurement": "Ratio (Deletedscore / WTscore)", "setting": "bait ABP1", "value": 1.003}]}, {"molecule": "YOR284W_1 (protein, UniProt Q12134 1-243, looked up) Protein HUA2: MQQTKFGKMYLDHDSVVEYSEDEIVEADRITLGYKKRLSMIENQMRHLLEDFSLDVQQIEPILADLQKYYDAFLQLLQKRNKSLQCKRSTHQPVPSPMNSQTSTNAKVNLSGKLMKFQLNSVQKFDEENILRILQNKIEFEHYFQIDKGKKQKVLLLAVYQCLNGPTRLHKVLNIEGIIHNNSIRTILGKQVSSSKWTVFLYDVKLVLLAHRQDVPNLETSKMIVRYGDLFPCALYFKDHTAY", "values": [{"measurement": "Ratio (Deletedscore / WTscore)", "setting": "bait ABP1", "value": 0.3885}]}, {"molecule": "YPR055W_1 (protein, UniProt P32855 1-1065, looked up) Exocyst complex component SEC8: MDYLKPAQKGRRRGLSINSLSETQQSAMNSSLDHLQNDLNRINLQWNRILSDNTNPLELALAFLDDTSVGLGHRYEEFNQLKSQIGSHLQDVVNEHSQVFNTNVASYGKAVSSIMQAQEQTLNLKNCLKEANEKITTDKGSLQELNDNNLKYTKMIDVLVNIEELLQIPEKIEENIRKENFHQVQILLERGFILMNNKSLKTVEILKPINQQLELQEHLLFNNLIEEIHDIMYSKSNKTNFTRVTNNDIFKIISISHNGFTSLENYLYNIVNIDIMEHSKTINKNLEQFIHDQSLNKGNIMLQENAATQAPLAPSRNQENEGFNRIGFLLKTINNINKLPVAFNIITERAKEEIHNIIVKSTESIRSKHPSLLKMATSLKNDNHFGLPVQDILSIILRECFWEIFLKLLYAIQCHRAIFEMSNILQPTSSAKPAFKFNKIWGKLLDEIELLLVRYINDPELISSNNGSIKPINGATNNAPTLPKRKNPKIFSLEYNIEDNSSVKDQAFELKALLKDIFPGFSVSSNMDLDSIYVKDESFEQDEPLVPPSVFNMKVILDPFLLFTQSTSTIVPSVLTQNTISSLTFFDDYMNKSFLPKIQMTMDYLFTVEVESNNPYALELSDENHNIFKTALDFQRLFYNLLNVFNTANTFREKISYCILDLLNHFYNYYLGLFNSLIGTSDRHLTRKIITAWLQNGILMDQEQKILNGDETLFHEESIELFKEIPHFYQAGKGLSKSDLFNNLTLDTILQFSASVLWILNWLPGLKKAINIDEVSQEPMLDADRLRSSWTFSESMDLNYSNPSSSPNSLGNLKILLDDKASKKFDETIDGFKTLKFKLITILRFNIRALCIYDIGSFFQNTKIWNMDVGSIELDQNIASLISELRRTESKLKQQLPEKEKNSIFIGLDIVNNYALIKGAKSIKVLNHNGIKKMLRNVNVLQHAYRNLSSEPSKINMNVTMNFYSLCGSSEAELFEYIKDNELPHCSVEDLKTILRLQFSEEMHRQLKRQSTSSTKGSIKPSNKRYTEALEKLSNLEKEQSKEGARTKIGKLKSKLNAVHTANEK", "values": [{"measurement": "Ratio (Deletedscore / WTscore)", "setting": "bait ABP1", "value": 0.936}, {"measurement": "Ratio (Deletedscore / WTscore)", "setting": "bait BEM1-1", "value": 1.037}, {"measurement": "Ratio (Deletedscore / WTscore)", "setting": "bait BEM1-2", "value": 0.6358}, {"measurement": "Ratio (Deletedscore / WTscore)", "setting": "bait LSB3", "value": 0.783}]}, {"molecule": "YKL117W_2 (protein, UniProt P28707 2-216, looked up) Co-chaperone protein SBA1: SDKVINPQVAWAQRSSTTDPERNYVLITVSIADCDAPELTIKPSYIELKAQSKPHVGDENVHHYQLHIDLYKEIIPEKTMHKVANGQHYFLKLYKKDLESEYWPRLTKEKVKYPYIKTDFDKWVDEDEQDEVEAEGNDAAQGMDFSQMMGGAGGAGGAGGMDFSQMMGGAGGAGSPDMAQLQQLLAQSGGNLDMGDFKENDEEDEEEEIEPEVKA", "values": [{"measurement": "Ratio (Deletedscore / WTscore)", "setting": "bait ABP1", "value": 1.066}, {"measurement": "Ratio (Deletedscore / WTscore)", "setting": "bait BZZ1-2", "value": 1.596}, {"measurement": "Ratio (Deletedscore / WTscore)", "setting": "bait LSB3", "value": 1.715}, {"measurement": "Ratio (Deletedscore / WTscore)", "setting": "bait RVS167", "value": 1.422}]}, {"molecule": "YNL094W_1 (protein, UniProt P53933 1-587, looked up) Phosphatidate phosphatase APP1: MNSQGYDESSSSTAATSGPTSGDPRMGKKQRFMNLIRTTKDVYIPNLTSSISQKTMDGIRSTTNSFEGYNDLPMELPHNTTITYFPTYTTTNLVDPDGLSAPRKDFETTVRCAVSYPGNPTSRRNRWLLSLCKQYLRTGTAEADVAPVVPPHLEEDSGDLNDSQSSIESSLSSKSENRYSHMGIQEEDVLNERIQGFLSKKVPNTPVVVDLLPKDKLRGDTASFFGTTDSYGNLLIKAETDFLPSKINITLDTPIEGHADPISETFPANYVSPYGIGLISDIDDTIKHTGVTGDRRSMFRNVFIHDVQSWVIDGVPLWYKTLHDVADVDFFYVSNSPIQTFTLLKQYICANFPPGPIFLKQYSGNFFSTIMTSSANRKIQPIANILKDFPKKKFILVGDSGEHDLEAYTTTALQFPNQILAIYIRCCSNSMSDVPSHDEEVMNEVNNIIELQQRPMQMTKSTVRTRRRPPPPPIPSTQKPSLTEEQTESIRMSRRNKDENNAKRVAPPPLPNRQLPNLDANTYYVPSSQNDYGMYGAFMDKKADEWKRRVMDSIQKLSNQDTTLMFFSDPALSLEDSIRRIREKYSN", "values": [{"measurement": "Ratio (Deletedscore / WTscore)", "setting": "bait ABP1", "value": 0.4956}]}, {"molecule": "YGR229C_2 (protein, UniProt P32566 1-505, looked up) Cell wall assembly regulator …: MDLFKRKVKEWVYSLSTDDHYAEYNPDETPTFNMGKRLNSNNGQVNPSQMHLNSVDEEMSMGFQNGVPSNEDINIDEFTSTESNDGVSETLLAWRHIDFWTSEHNPDLNATLSDPCTQNDITHAEEDLEVSFPNPVKASFKIHDGQEDLESMTGTSGLFYGFQLMTLDQVVAMTQAWRNVAKNLNKRSQQGLSHVTSTGSSSSMERLNGNKFKLPNIPDQKSIPPNAVQPVYAHPAWIPLITDNAGNHIGVDLAPGPNGKYAQIITFGRDFDTKFVIAENWGEFLLSFANDLEAGNWYLVDDNDDYFSGDGELVFRDKKSNGPIQDYFEVLKRRTWIKYQENLRSQQQKSQPDTSLQEQKYVPASQKKVAAEQPSTLNAESIKGEDSGSADVQSVQDHESVKIVKTEPSEAETTTVNTESLGQAEHEIKADNVDIKQESERKEDEKQPKVEEKEHVENEHVTESAKKDDDVNKQTEEMNKKEENEIRSDDAKVEEAREEFENIAL", "values": [{"measurement": "Ratio (Deletedscore / WTscore)", "setting": "bait BZZ1-1", "value": 1.034}, {"measurement": "Ratio (Deletedscore / WTscore)", "setting": "bait BZZ1-2", "value": 1.734}, {"measurement": "Ratio (Deletedscore / WTscore)", "setting": "bait LSB1", "value": 1.08}, {"measurement": "Ratio (Deletedscore / WTscore)", "setting": "bait PIN3", "value": 1.619}]}, {"molecule": "YLR191W_2 (protein, UniProt P80667 1-386, looked up) Peroxisomal membrane protein …: MSSTAVPRPKPWETSASLEEPQRNAQSLSAMMTSNQQDSRPTEESNNSNSASESAPEVLPRPAALNSSGTYGESNTIPGIYGNSNYGIPYDNNPYSMNSIYGNSIGRYGYGGSYYGNNYGSFYGGGYGAGAGYGMNNGSGLGESTKATFQLIESLIGAVTGFAQMLESTYMATHNSFFTMISVAEQFGNLKEMLGSFFGIFAIMKFLKKILYRATKGRLGIPPKNFAESEGSKNKLIEDFQKFNDSGTINSNEKATRRKISWKPLLFFLMAVFGFPYLLNKFITKLQTSGTIRASQGNGSEPIDPSKLEFARALYDFVPENPEMEVALKKGDLMAILSKKDPLGRDSDWWKVRTKNGNIGYIPYNYIEIIKRRKKIEHVDDETRTH", "values": [{"measurement": "Ratio (Deletedscore / WTscore)", "setting": "bait BEM1-1", "value": 1.873}, {"measurement": "Ratio (Deletedscore / WTscore)", "setting": "bait", "value": 1.174}]}, {"molecule": "YCL024W_2 (protein, UniProt P25389 1-1037, looked up) Probable …: MTVANTETHSAAKPSSTIGPWKLGETLGFGSTGKVQLAQHERTGHRTAVKVISKSIFNNNGNHSNDDSVLPYNIEREIVIMKLLSHPNVLSLYDVWETNNNLYLILEYAEKGELFNLLVDHGPLPEREAINCFRQIIIGISYCHALGIVHRDLKPENLLLDSFYNIKIADFGMAALQTDADLLETSCGSPHYAAPEIVSGLPYEGFASDVWSCGVILFALLTGRLPFDEENGNVRDLLLKVQKGQFEMPNDTEISRDAQDLIGKILVVDPRQRIKIRDILSHPLLKKYQTIKDSKSIKDLPRENTYLYPLADSNNHTSASIDDSILQNLVVLWHGRHADDIVSKLKENGTNKEKILYALLYRFKLDSVRGSNKKNRNKIKKTKKNKRSSTLSSSSSLLLNNRSIQSTPRRRTSKRHSREFSSSRKRSSFLLSSNPTDSSPIPLRSSKRITHINVASANTQATPSGVPNPHKRNSKKRSSKRLSYMPNTKRSSLTSKSLSNFTNLIDDDDWEYIEKDAKRTSSNFATLIDEIFEPEKFELAKREKAELQRKVQEAKRQSVNAQKINEDEFGSEVSDGMKELKKINDKVSSPLINYEFSQQELLQDIDTLLTNRYQLSSYTRPISRLDPGLTPVTETLPNNLKEKTALLQDTEKKIIETIRRSKFLGSLLNVRGGLSPGKSELAPIEESPIVSTTPLIYNDRMEPRRISDVEVPHFTRKSKHFTTANNRRSVLSLYAKDSIKDLNEFLIKEDPDLPPQGSTDNESRSEDPEIAESITDSRNIQYDEDDSKDGDNVNNDNILSDFPQGVGISQEYDMKDKNPNQSPISKSAEPTLVVKLPSLSSFQGKNASGLGLYQREPSKVTLPSLTSNNSSVGENIEDGAEKGTESEKIAASLSDDDLKEDNDKKDNDTVNAPTTVKKPPNSVLLKKFSKGKILELEIHAKIPEKRLYEGLHKLLEGWKQYGLKNLVFNITNMIITGKLVNDSILFLRSTLFEIMVLPNGDGRSLIKFNKKTGSTKTLTKLATEIQIILQKEGVLDK", "values": [{"measurement": "Ratio (Deletedscore / WTscore)", "setting": "bait NBP2", "value": 1.51}]}]}
